In publication PMC8582077:

Key:
myoglobin = myoglobin (horse, UniProt P68082 2-154); assay: EMSA
[1] = molecular target: MERS-CoV Spike S1 protein (Middle East respiratory syndrome …, UniProt K9N5Q8 18-751); assay: bead-based fluorescence binding assay
Chain of MERS-CoV Spike S1 protein (K9N5Q8 18-751): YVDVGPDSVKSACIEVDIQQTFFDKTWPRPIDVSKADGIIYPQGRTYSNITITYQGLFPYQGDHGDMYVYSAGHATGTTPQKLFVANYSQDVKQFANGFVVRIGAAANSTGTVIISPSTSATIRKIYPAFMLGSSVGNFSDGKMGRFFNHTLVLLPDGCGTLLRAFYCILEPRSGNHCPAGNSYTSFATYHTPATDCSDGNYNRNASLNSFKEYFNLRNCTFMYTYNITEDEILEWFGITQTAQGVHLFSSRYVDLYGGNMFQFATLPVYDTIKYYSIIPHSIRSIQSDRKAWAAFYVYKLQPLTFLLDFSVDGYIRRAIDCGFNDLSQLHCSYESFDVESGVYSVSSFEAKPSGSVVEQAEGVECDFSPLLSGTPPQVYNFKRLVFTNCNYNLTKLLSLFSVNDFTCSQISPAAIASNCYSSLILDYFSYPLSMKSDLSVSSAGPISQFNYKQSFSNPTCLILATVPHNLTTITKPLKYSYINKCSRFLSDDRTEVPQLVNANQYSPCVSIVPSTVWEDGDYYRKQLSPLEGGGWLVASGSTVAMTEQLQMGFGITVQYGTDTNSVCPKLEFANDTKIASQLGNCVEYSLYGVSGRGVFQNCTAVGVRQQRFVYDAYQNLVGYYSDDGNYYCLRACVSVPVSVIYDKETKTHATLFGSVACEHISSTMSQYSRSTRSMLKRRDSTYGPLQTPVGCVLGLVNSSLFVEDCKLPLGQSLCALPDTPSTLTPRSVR

Chain of myoglobin (P68082 2-154): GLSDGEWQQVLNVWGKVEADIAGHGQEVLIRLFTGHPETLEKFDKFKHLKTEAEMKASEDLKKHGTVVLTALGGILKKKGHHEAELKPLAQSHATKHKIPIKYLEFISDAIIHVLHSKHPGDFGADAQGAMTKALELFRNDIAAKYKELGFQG

Binder	binding result (myoglobin)	Kd [1] [nM]
MF MERS aptamer (3WJ of MERSapt-3WJa, MB/3WJb, NH2/3WJc) (structured_DNA, 5' NH2 on S6) DNA 1: TGACACCGTACCTGCTCTGCACTTCCTTCACCAGAAACCTGCACATCTTCGCCGCGTGAAGCACGCCAAGGGACTATTTGCCATGTGTATGTGGG DNA 2: TTTGGGTAGGGCGGGTTGGGCCCACATACTTTGTTGATCC DNA 3: GGATCAATCATGGCAA	no binding	
S-12 aptamer (MERS aptamer-b) (ssDNA) DNA: TGACACCGTACCTGCTCTCCGACCCATCTAGCACTTCACACACGCCCGATCGGATTAGTAAGCACGCCAAGGGACTAT		287 ± 17.7
S-19 aptamer (ssDNA) DNA: TGACACCGTACCTGCTCTGCACTTCCTTCACCAGAAACCTGCACATCTTCGCCGCGTGAAGCACGCCAAGGGACTAT		112 ± 3.89
